41 sequences from the nanobody polyreactivity screen of Harvey et al. (2022) can be followed below.

This data set in a line: yeast display, Sf9 membrane polyspecificity reagent, FACS + sequencing; frameworks hold sequencing errors. In a few lines: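 Nanobodies from a synthetic yeast display library (Saccharomyces cerevisiae BJ5465), induced 36–48 hours with galactose, were stained 1 hour at 4 °C with 10% biotinylated, detergent-solubilized Sf9 membrane reagent, enriched on streptavidin microbeads, then FACS-sorted. Anti-HA (expression) and streptavidin (reagent binding) fluorescence set low and high (top ~1%) gates. Polyreactivity labels come from the gate of origin. Genes were colony-PCR amplified, MiSeq 2 × 250 sequenced and filtered by CDR length.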
Turning to “QVQLVESGGGLVQAGGSLRLSCAASGSTFTGYALGWYRQAPGKERELVAAISSGGSTYYADSVKGRFTISRDNAKNTVYLQMNSLKPEDTAVYYCAAAPRWKASRLYYWGQGTQVTVSS”, the “polyreactivity (PSR sort gate)” value was “high polyreactivity”.

Regarding “QVQLVESGGGLVQAGGSLRLSCAASGFIFKRYVMGWYRQAPGKERELVAGITRSGSSTSYADSVKGRFTISRDNAKNTVYLQMNSLKPEDTAVYYCAARAWKKLDYWGQGTQVTVSS”, the “polyreactivity (PSR sort gate)” value is “high polyreactivity”.

Consider “QVQLVESGGGLVQARGSLRLSCAASGLTVGYNAMGWYRQARVKEWELVGAISSNGGRTYYADSVKGRFTISRDNAKNTVYLQMNSLKPEDTAVYYCNARYTGSSLYYWGQGTQVTVSS”, for which the “polyreactivity (PSR sort gate)” value is “high polyreactivity”.

Take “QVQLVESGGGLVQAGGSLRLSCAASGGTFVQYVMGWYRPAPGKERELVAAISASGGRTYYADSVKGRFTISRDNAKNSVYLQMNSLKPEDTAVDYCAAERKGSVTYEYDYWGQGTQVSVSS”: the “polyreactivity (PSR sort gate)” value is “high polyreactivity”.

Regarding “QVQLVESGGGLVQAGGSLRLSCAASGSTFGTYAMGWYRQAPGKERELVAAISSGDSTTYADSVKGRFTISRDNAKNTVYLQMNSLKPEDTAVYYCAARVPYKSDYWGQGTQVTVSS”, the “polyreactivity (PSR sort gate)” value was “low polyreactivity”.

As to “QVQLVESGGGLLQAGGSLRLSCAASGSIFGVNAMGWYIQAPGKERELVASITGGDSTNYADSVKGRFTISRDNAKNTVYLQINSLKTEDTAVYYCNARVADAWASGYDYWGQGTQVTVSS”, the “polyreactivity (PSR sort gate)” value was “low polyreactivity”.

Consider “QVQLVESGGGLVQAGGSLRLSCAASGFTYDSYAMRWYRQAPGKERELVAAITRRGGSTYYADSVKGRFTISRDNAKNTVYLQMNSLKPEDTAVYYCATLRLRSLGQRNYWGQGTQVTVSS”, for which the “polyreactivity (PSR sort gate)” value is “high polyreactivity”.

In the case of “QVQLVESGGGLVQAGGSLRLSCAASGRIFYGYTMGWYRQAPGKERELVASITIRGSRTYYADSVKGRFTISRDNAKNTVYLQMNSLKPEDTAVYYCAADFVPARTVHRYDYWGQGTQVTVSS”, the “polyreactivity (PSR sort gate)” value is reported as “low polyreactivity”.

For the sequence “QVQLVESGGGLVQAGGSLRLSCAASGRTFYVYAMGWYRQAPGKERELVAAISWGGGSTYYADSVKGRFTISRDNAKNTVYLQMNSLKPEDTAVYYFAAESWTSGTNVPVWYYGYSWGQGTQVTVSS”, the “polyreactivity (PSR sort gate)” value was “low polyreactivity”.

Regarding “QVQLVESGGGLVQAGGSLRLSCAASGFIFLEYAMGWYRQAPGKERELVAAISSRGTRTYYADSVKGRFTISRDNAKNTVYLQMNSLKPEDSAVYYCARVWSQSSNYEYDYWGQGTQVTVSS”, the “polyreactivity (PSR sort gate)” value is “high polyreactivity”.

Take “QVQLVESGGGFVQAGGSLRLSCAASGSTFGYYVMGWYRQAPGKERELVAAISASGGSTYYADSVKGRFTISRDNAKHTVYLQMNSLKPEDTAVYYCAAGGYYVRYDYWGQGTQVTVSS”: the “polyreactivity (PSR sort gate)” value is on record as “high polyreactivity”.

In the case of “QVQLVESGGGLVQAGGSLRLSCAAYGIIFNSYFMGWYRPAPGKERELVAAITGSCGRTYYADSVKGRFTISRDNAKNTVYLQIISLKPEDTAVYYCSATNRGQVYGAWYNSWGQGTQVTVSS”, the “polyreactivity (PSR sort gate)” value was “high polyreactivity”.

Consider “QVQLVESGGGLVQAGGSLRLSCAASGSTFLDNAMGWYRQAPGKERELVASITSSGGNTYYADSVKGRFTISRDNAKNTVYLQLNSLTPEDTAVYYCAADAASYWRYNSANYDYDYWGQGTQVTVSS”, for which the “polyreactivity (PSR sort gate)” value is given as “low polyreactivity”.

In the case of “QFQLVESGGGLVQAGGSLRLSCAASGSIFKYYTMGRYRQAHGKEMELVAYISSGGSTKYADSVKGRFTISRDNAKNTVYLQMNSLKPEDTAVYYCAKRYYYFYPDYDYWGQGTQVTVSS”, the “polyreactivity (PSR sort gate)” value is on record as “high polyreactivity”.

Take “QVQLVESGGGLVQAGGSLRLSCAASGGTFSTYTMGCYRQAPGKERELVAGISGRGGSTRYADSVKGRFTISRDNAKNTVYLQMNSLKPEDTAVYYCNARKRSYWGIVFVGLYDYWGQGTQVTVSS”: the “polyreactivity (PSR sort gate)” value is “high polyreactivity”.

Take “QVQLVESGGGLVQAGGSLRLSCAASGSTLSDNAMGWYRQAPGKERELVASISWSGGTYYADSVKGRFTISRDNAKNTVYLQMNSLKPEDTAVYYCAAYIYYNYSRQYWYDYWGQGTQVTVSS”: the “polyreactivity (PSR sort gate)” value was “low polyreactivity”.

As for “QVQLVESGGGLVQAGGSLRLSCAASGRIFYFNAMGWYRQAPGKERELVADMSSGGRTNYADSVKGRFTISRDNEKNSVYLQMNSLKPEDSAVYYWIAEPYTSSVGYRGYDFDDWGQGTQVTVSS”, the “polyreactivity (PSR sort gate)” value is “low polyreactivity”.

Regarding “QVQRVETGGVLVQAGGSLRLSCAASGRIFINDMGWYRQAHGKEMELVAAIRSDGSTNYADSVKGRFTFSRDTAKNTVYLQMNSLKPEDTAVYYCNVDGYYLFVRGYEYWGQGTQVTVSS”, the “polyreactivity (PSR sort gate)” value is reported as “low polyreactivity”.

Turning to “QVQLVESGGGLVQAGGSLRLSCAASGRIFPVNAMGWYRQAPGTERELVATISSGDITNYAHSVKGRFTISRDNAKNTVYLQMNSLKPEDTAVYYCAADYTWRAWTYYGIKYNYWGQGTQVTVSS”, the “polyreactivity (PSR sort gate)” value is “low polyreactivity”.

Consider “QVQLVESGGGLVQAGGSLRLSCAASGRTFSGYAMGWYRQAPGKEREFVAAITSSGSSTYYADSVKWRFTISRVIAKNTVYLQMNSLKPEDTAVYYCAATPQAHSERYYYQRKYDYWGQGTQVTVSS”, for which the “polyreactivity (PSR sort gate)” value is “low polyreactivity”.

Take “QVQLVESGVGLVQAGGRLRLICAASGSTYDSAMGWYIQAPGKERELVASISWSDSSTYYADSVKGRFTISPDNAKNTVYLQMTSLKPEDSAVYYCNAEQGTRDSDYWGQGTQVTVSS”: the “polyreactivity (PSR sort gate)” value is “low polyreactivity”.

As to “QVQLVESGGGLVQAGGSLRLSCAASGSTITSNAMGWYRQAPGKERELVAAINTSGGSTYYADSVKGRFTISRDNAKNTVYLQMNSLKPEDTAVYYCNADYGGDEYRGLEFDYWGQGTQVTVSS”, the “polyreactivity (PSR sort gate)” value is “low polyreactivity”.

For the sequence “QVQLVESGGGLVQAGGSLRLSCAASGSTFRYNVMGWYRQAPGKERELVAAISSGGSTYYADSVKGRFTISRDNAKNTVYLQMNSLKPEDTAVYYCAAPRYLFFVGLGMDYWGQGTQVTVSS”, the “polyreactivity (PSR sort gate)” value is given as “high polyreactivity”.

Take “QVQLVESGRGLVQAGGSLSLSCAASGSILYIYAMVWNIQAPGKERELVDSINSGGSTNYADSVKGRFTISRDNAKNTVYLEMNSLIPEDTAVYYCAKSIGNPPQGFKDFDYWGQGTLVTVSS”: the “polyreactivity (PSR sort gate)” value was “low polyreactivity”.

For “QVQLVESGGGLVQAGGSLRLSCAASGSTFPKYAMGWYRQAPGKERELVASISVTTGSTYYADSVKGRFTISRDNAKNTVYLQMNSVKPEDTAVYYCAARRGWGDDYWGQGTQVTVSS”, the “polyreactivity (PSR sort gate)” value is on record as “high polyreactivity”.

Take “QVQIVESGGGLVQAGGSLRLSCAASGSTFTFYAMGSYRQAPGKERELVASITQSTGSTHYADSVKGRFTISRDNEKNTVFLQMNSLNPEDTAVYYCKAQKIVYYLVTLFPYYYWGQGSQVTVSS”: the “polyreactivity (PSR sort gate)” value was “low polyreactivity”.

For “QVQLLESGGGLVQAGGSLRLSCAASGSIIRQNGMVWYRPAPGKEREFVAAITRTGGSTYYADSVKGRFTISRDNAKNTVYLHMNSLKPEDTAGYYCAARGGYRYTRYDYWGQGTQVTVSS”, the “polyreactivity (PSR sort gate)” value is given as “high polyreactivity”.

With “HVQLQESGGVLVQAGGSLRLSCAASGSIFQATYMGWYRQAPGKEREFVASITYGSITNYADSVKGRFTIGRDNAKDTLYLQMNSLKPEDTAVYYCADDRHYIPAFHYWGQGTQVTVSS”, the “polyreactivity (PSR sort gate)” value was “low polyreactivity”.

Regarding “QDQLVESGGGLVQAGGSLRLSCAASGRTFGRYAMGWYRQAPGKERELVASISYSTDSTYYADSVKGRFTISRDNAKNTVYLQMNSLKPEDTAVYYCATDSVNVGSYVGDKHDYWGQGTQVTVSS”, the “polyreactivity (PSR sort gate)” value is “low polyreactivity”.

For the sequence “QVQLVESGGGLVQAGGSLRLSCAASGRTLDKYTMGGYRQAPGKERELVASITSGGSTNYADSVKGRFTISRDNAKNTVYLQMNSLKPEDTAVYYCASGNWVLWNPGYDYWGQGTQVTVSS”, the “polyreactivity (PSR sort gate)” value is on record as “low polyreactivity”.

For the sequence “QVQLVESGGGLVQAGGSLRLSCAASGRIFYAYAMGWYRKAPGKERELVAAITETGGNTYYADSVKGRFTISRDNAKNTVYLQMNSLKPEDTAVYYCARKGRRTHHYGLYSSSVYYWGQGTQVTVSS”, the “polyreactivity (PSR sort gate)” value was “low polyreactivity”.

Consider “QVQLVESGGGLVQAGVSLRLSCAATGFPLQVYDMGWYRQAPGKEMELVADISGSGDSTNYADSVKGRFTISRDNAKNSVYLQMNSLKPEDTAVYYCAAEVRGGYYGYDYWGQGTQVTVSS”, for which the “polyreactivity (PSR sort gate)” value is recorded as “low polyreactivity”.

On to “QVQLVESGGGLVQAGGSLRLSCAASGSTFRYNAMGWYRQAPGKERELVAAITSSGSRTYYADSVKGRFTISRDNAKNTVYLQMNSLKPEDTAVYYCAAYGYYTKVTKYDYWGQGTQVNVSS”, for which the “polyreactivity (PSR sort gate)” value is “high polyreactivity”.

Regarding “QVQLVESGGGLVQAGGSLRLSCAASGTFVTYMGWYRQAPGKERELVAAIRNGGSTNYADSVKGRFTISRDNAKNTVYLQMNSLKPEDTAVYYCAADRAGSIMNYWGQGTQVTVSS”, the “polyreactivity (PSR sort gate)” value is on record as “low polyreactivity”.

For “QVQLVESGGGLVQAGGSLRLSCAASGRIFYQNAMGWYRQAPGKERELVADISSGGSTYYADSVKGRFTISRDNAKNTVYLQMNSLKPEDTAVYYCNTPSGPGTVGSYRRKWYGYWGQGTQVTVSS”, the “polyreactivity (PSR sort gate)” value was “low polyreactivity”.

With “QVQLVESGGGLVQAGGSLRLSCAASGSIFWGNAMGWYRPAPGKERELVASISDSGGSTYADSVKGRFTISRDNAKNTVYLQMNSLKPEDTAVYYCAADDWYSAGIRNWYYGGYDYWGQGTQVTVSS”, the “polyreactivity (PSR sort gate)” value is given as “low polyreactivity”.

For the sequence “QVQLVESGGGLVQAGGSLRLSCAASGSIKDNVMGWYRQAPGKERELVAAITRSAGRTYYADSVMGRFTISRDNEKNTVYLQMNSLKPEDTAVYYCASQAERYGYEYWGQGTQVTVSS”, the “polyreactivity (PSR sort gate)” value is recorded as “low polyreactivity”.

Consider “QVQHVESGGGLVQAGGSLRLSCAASGFTSSRNAMGWSRQAPGKERELVATISSGGDTYYADSVKGRFTISRDNAKNSVYLQMNSLKPEYTAVYYCNKDTLYAWGYDYWGQGTQVTVSS”, for which the “polyreactivity (PSR sort gate)” value is “low polyreactivity”.

As for “QVQLVESGGGLVQAGGSLRLSCAASGRIFYVYAMGWYRQAPGKEREFVAAITRRSGSTYYADSVKGRFTISRDNAKNTVYFQMKSVKPEDTAVYSCNARLKYAIPQVPPYDYWGQGTQVTVSS”, the “polyreactivity (PSR sort gate)” value is reported as “high polyreactivity”.

Regarding “QVQLVESGGGLVQAGGSLRLSCAASGGTIAYAMGWYRQAPGKERELVAAISKHGGRTYYADSVKGRFTISRDNAKNTVYLQMNSLKPEDSAVYYCAADAFRGFYWGQGTQVTVSS”, the “polyreactivity (PSR sort gate)” value is recorded as “high polyreactivity”.

On to “QVQLVESGGGLVQAGGSLRISCAASGLTFDRYAMGWYRQAPGKERELVAAISGSGSSTYYADSAKGRFTISRDNAKNTVYLQMNSLKPEDTAVYYCAADRDLGYDTRYNYWGQGTQVTVSS”, for which the “polyreactivity (PSR sort gate)” value is on record as “low polyreactivity”.
